Reference: patent US20240385190A1 (EISAI R AND D MANAGEMENT, published 2024)
Several values for one entry are separate records, joined by “and”; a condition that tells them apart may be missing. Identical values can stand only once.

Key:
Rabbit = molecular target: T1, Rabbit; experiment: ELISA
T1 construct: also called rabbit EphA4 extracellular domain-SEAP-His protein
Experimental: (§1) For the anti-human EphA4 monoclonal antibodies produced in Example 1, evaluation of binding activity to various EphA4 was performed according to the following steps. Mouse anti-6-His antibodies (R&D) were coated on the wells of a 96-well plate (Thermo […]). After incubating at room temperature for 1 hour, the wells were blocked at 4° C. overnight with 1% Block Ace (KAC). After washing three times with 0.02% Tween 20/PBS, the wells were seeded with mouse EphA4 extracellular domain-SEAP-His protein, rat EphA4 extracellular domain-SEAP-His protein, rabbit EphA4 extracellular domain-SEAP-His protein, monkey EphA4 extracellular domain-SEAP-His protein, human EphA4 extracellular domain-SEAP-His protein, or SEAP-His protein (final concentration 1 nM), and this was incubated at room temperature for 1 hour. After washing three times, anti-human EphA4 rabbit monoclonal antibody (10 pg/mL) was added, and this was incubated at room temperature for about 1 hour. After washing three times, horseradish peroxidase labeled goat anti-rabbit IgG polyclonal antibody (abcam) was added, and this was incubated at room temperature for 1 hour. After washing three times, TMBZ (3,3′,5,5′-tetramethylbenzidine, KPL) solution was added to the wells, and this was incubated for 3 minutes at room temperature. Equal amounts of quenching solution (2 N H₂SO₄, FUJIFILM Wako) were added to the wells, and absorbance at 450 nm and 650 nm were read with a microplate reader (Thermo […]).

Rat = molecular target: T2, Rat; experiment: ELISA
T2 construct: also called rat EphA4 extracellular domain-SEAP-His protein
Experimental: as §1

Mouse = molecular target: T3, Mouse; experiment: ELISA
T3 construct: also called mouse EphA4 extracellular domain-SEAP-His protein
Experimental: as §1

SEAP = molecular target: T4, SEAP; experiment: ELISA
T4 construct: negative control antigen; also called SEAP-His protein
Experimental: as §1

[1] = molecular target: T5, human EphA4 extracellular domain-SEAP-His protein (human); experiment: ELISA
T5 sequence (chain, as listed by the source limits assumed): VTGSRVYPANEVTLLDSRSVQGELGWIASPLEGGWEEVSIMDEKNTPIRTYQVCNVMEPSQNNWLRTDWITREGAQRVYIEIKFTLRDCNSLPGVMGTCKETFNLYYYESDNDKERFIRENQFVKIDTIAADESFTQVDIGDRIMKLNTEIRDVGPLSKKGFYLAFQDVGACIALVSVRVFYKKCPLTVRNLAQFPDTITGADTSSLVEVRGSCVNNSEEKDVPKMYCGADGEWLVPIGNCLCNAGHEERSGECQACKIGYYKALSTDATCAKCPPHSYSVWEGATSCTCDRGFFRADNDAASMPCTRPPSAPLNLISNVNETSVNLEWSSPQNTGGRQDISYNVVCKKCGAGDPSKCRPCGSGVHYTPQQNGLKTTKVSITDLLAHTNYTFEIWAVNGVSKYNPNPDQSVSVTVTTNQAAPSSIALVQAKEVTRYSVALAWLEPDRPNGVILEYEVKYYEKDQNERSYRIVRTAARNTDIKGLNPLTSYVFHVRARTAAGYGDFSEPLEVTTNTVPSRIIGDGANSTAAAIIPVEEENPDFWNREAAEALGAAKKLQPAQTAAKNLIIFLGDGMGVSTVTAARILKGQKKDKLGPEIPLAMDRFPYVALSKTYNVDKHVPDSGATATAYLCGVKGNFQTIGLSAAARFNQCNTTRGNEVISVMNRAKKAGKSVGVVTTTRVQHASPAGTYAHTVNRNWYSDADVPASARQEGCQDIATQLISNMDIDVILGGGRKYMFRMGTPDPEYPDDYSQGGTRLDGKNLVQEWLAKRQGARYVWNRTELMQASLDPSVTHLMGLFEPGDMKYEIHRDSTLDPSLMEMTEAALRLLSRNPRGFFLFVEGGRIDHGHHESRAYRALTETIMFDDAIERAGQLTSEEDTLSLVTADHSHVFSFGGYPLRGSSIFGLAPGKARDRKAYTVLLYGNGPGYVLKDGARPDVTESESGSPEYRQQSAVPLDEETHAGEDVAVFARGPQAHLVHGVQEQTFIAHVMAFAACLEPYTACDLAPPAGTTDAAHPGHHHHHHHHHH
Experimental: as §1

[2] = molecular target: T6, monkey EphA4 extracellular domain-SEAP-His protein (monkey); experiment: ELISA
T6 construct: the fusion as a whole has none; not shown: SEAP-His part
T6 sequence (chain, as listed by the source): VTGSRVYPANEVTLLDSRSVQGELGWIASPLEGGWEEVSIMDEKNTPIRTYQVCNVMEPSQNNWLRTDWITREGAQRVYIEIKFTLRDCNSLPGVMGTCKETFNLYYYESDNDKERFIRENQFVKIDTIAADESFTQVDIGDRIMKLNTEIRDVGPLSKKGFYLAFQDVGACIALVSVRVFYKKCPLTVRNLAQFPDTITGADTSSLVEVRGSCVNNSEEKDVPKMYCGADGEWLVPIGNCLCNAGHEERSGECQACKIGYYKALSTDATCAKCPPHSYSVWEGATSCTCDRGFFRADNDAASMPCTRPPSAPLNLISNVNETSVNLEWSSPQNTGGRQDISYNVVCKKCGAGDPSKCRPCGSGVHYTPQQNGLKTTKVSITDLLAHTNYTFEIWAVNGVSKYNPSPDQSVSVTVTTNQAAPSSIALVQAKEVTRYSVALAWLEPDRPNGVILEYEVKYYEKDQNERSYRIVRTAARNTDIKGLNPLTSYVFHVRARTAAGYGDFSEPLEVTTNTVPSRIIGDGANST
Experimental: as §1

FN1 = experiment: ELISA
Experimental: (§2) For the anti-human EphA4 monoclonal antibodies produced in Example 1, evaluation of binding activity to various EphA4 was performed according to the following steps. Mouse anti-6-His antibodies (R&D) were coated on the wells of a 96-well plate (Thermo […]). After incubating at room temperature for 1 hour, the wells were blocked at room temperature for 1 hour with 1% Block Ace (KAC). After washing three times with 0.02% Tween 20/PBS, the wells were seeded with human EphA4 extracellular domain-MBP-His protein, human EphA4 ligand binding domain-MBP-His protein, human EphA4 fibronectin III-type domain 1-MBP-His protein, human EphA4 fibronectin III-type domain 2-MBP-His protein, or MBP-His protein (final concentration 1 nM), and this was incubated at room temperature for 1 hour. After washing three times, anti-human EphA4 rabbit monoclonal antibody (10 pg/mL) was added, and this was incubated at room temperature for 1 hour. After washing three times, horseradish peroxidase labeled goat anti-rabbit IgG polyclonal antibody (abcam) was added, and this was incubated at room temperature for 1 hour. After washing three times, TMBZ (3,3′,5,5′-tetramethylbenzidine, KPL) solution was added to the wells, and this was incubated for four and a half minutes at room temperature. Equal amounts of quenching solution (2 N H₂SO₄, FUJIFILM Wako) were added to the wells, and absorbance at 450 nm and 650 nm were read with a microplate reader (Thermo […]).

FN2 = experiment: ELISA
Experimental: as §2

MBP = experiment: ELISA
Experimental: as §2

[3] = molecular target: T7, human EphA4 extracellular domain-MBP-His protein (human); experiment: ELISA
T7 construct: also called human EphA4 extracellular domain (ECD); Human EphA4 extracellular domain-MBP-His 10
Experimental: as §2

[4] = molecular target: human EphA4 ligand binding domain-MBP-His protein (human, UniProt P54764 20-209; P0AEX9 29-392 = MBP); experiment: ELISA
Experimental: as §2

[5] = molecular target: T5, human EphA4 extracellular …; experiment: ELISA; remark: listed apart in the source
[6] = molecular target: T6, monkey EphA4 extracellular …; experiment: ELISA; remark: listed apart in the source
[7] = molecular target: T7, human EphA4 extracellular …; experiment: SPR Biacore T200, EphA4 ECD-MBP-His captured by anti-His antibody, antibody as analyte, 1:1 model
Experimental: (§3) The binding affinity of KPEP11_04, KPEP11_08, KPEP11_10, and KPEP11_18 against human EphA4 was determined by the surface plasmon resonance method (SPR method) employing Biacore T200 (Cytiva). First, an anti-His antibody (Cytiva, 28-9950-56) was diluted to 10 μg/mL with the immobilizing buffer (10 mM sodium acetate, pH 4.5), and immobilized onto a sensor chip CM5 according to the protocol attached to Biacore T200. Immobilization was performed by the amine coupling method employing N-hydroxysuccinimide (NHS) and N-ethyl-N′-(3-dimethylaminopropyl) carbodiimide hydrochloride salt (EDC), and ethanolamine was employed for blocking (sensor chips or immobilizing reagents were all from Cytiva). Human EphA4 extracellular domain-MBP-His 10 was diluted with a running buffer HBS-EP+ (Cytiva), and pumped onto a flow cell for 120 seconds to allow capturing (captured amount of about 3 RU). […] At the end of each observation, 10 mM glycine hydrochloric acid pH 1.5 (60 seconds) and 3 M MgCl₂ (30 seconds) were added to regenerate the sensor chips. Fitting analysis by the 1:1 binding model employing the BIA evaluation software attached to the system was performed against the binding reaction curves obtained to calculate the binding affinity against human EphA4 (KD=kd/ka). The experiment described above was carried out three times, and the mean was calculated for each parameter.

[8] = molecular target: T7, human EphA4 extracellular …; experiment: SPR Biacore T200, EphA4 ECD-MBP-His captured by anti-His antibody, antibody as analyte, 1:1 model, mean of three
Experimental: as §3

[9] = molecular target: T7, human EphA4 extracellular …; experiment: SPR Biacore T200, EphA4 ECD-MBP-His captured by anti-His antibody, antibody as analyte, 1:1 model, mean of three (exponent printed as -90, read as -09); mean of three experiments
Experimental: as §3

B1: KPEP11_04 (antibody, V domains shown)
VH: QEQLKESGGRLVTPGGSLTLTCTVSGIDLSSYAMSWVRQAPEKGLEWIGFINMYGTYYASWAKGRFTISRTSTTVDLKVTSLTTEDTATYFCVRGGRSPDYDIVSGDIWGPGTLVTVSS
VL: YVMMTQTPSSVSEPVGGTVTIKCQASQNIYNSLAWYQQKPGQRPKLLIADASELASGVPQRFSGSGSGTQFTLTISDLECADAATYYCQSSSAGDSYVGGFGGGTEVVVKG
notes: Rabbit IgG/kappa; Used HRP-labeled as detection antibody in the sandwich ELISAs; also called anti-human EphA4 rabbit monoclonal antibody KPEP11_04; HRP-labeled KPEP11_04
Binder B1 has an absorbance (Rabbit) of 0.039, an absorbance (Rat) of 0.044 and an absorbance (Mouse) of 0.044. For the same binder, the absorbance (SEAP) was 0.05, the absorbance [1] was 1.26 and the absorbance [2] was 1.21. It also gave an absorbance (FN1) of 0.225, an absorbance (FN2) of 0.227 and an absorbance (MBP) of 0.267. For the same binder, the absorbance [3] was 1.41, the absorbance [4] was 1.33 and the “EC50 (read off the curve)” value [5] was about 0.01 nM. The “EC50 (read off the curve)” value [6] was about 0.01 nM, the Kd [7] was 1.72 nM and 2.12 nM and 1.87 nM and the koff [7] was 0.004 s⁻¹ and 0.00378 s⁻¹ and 0.00389 s⁻¹. For the same binder, the kon [7] was 2.33e+06 M⁻¹ s⁻¹ and 1.78e+06 M⁻¹ s⁻¹ and 2.08e+06 M⁻¹ s⁻¹, the koff [8] was 0.00389 s⁻¹ and the kon [8] was 2.06e+06 M⁻¹ s⁻¹. The Kd [9] was 1.9 nM.
